# Experimental data as given in patent US12648942B2, “Method for treating acute ischemic stroke” (Lumosa Therapeutics Co., LTD, priority 2021, dated 2026).
# Like-named read-outs stand apart in the source and are kept apart here.
# Key:
# [1] = Study 101: safety and tolerability of single doses in healthy subjects; assay type: in vivo; conditions: both sexes, human, plasma, intravenous; from Subject 001-008 and Subject 001-042, 0.05 mg/kg; read-out: Cmax at which DC009 was tolerable in human
# Source text: (§1) The primary objective of this Phase 1, double-blind, randomized, placebo-controlled study was to determine the safety, tolerability, and pharmacokinetics of single ascending doses of DC009 drug product administered by 15-minute IV infusion in healthy subjects. The secondary objectives were to characterize the pharmacodynamics of single-ascending doses, explore the pharmacokinetic-pharmacodynamic relationships of single-ascending doses, and to determine the RP2D of the DC009 drug product.
# (§2) The subject population was healthy adult male and female subjects between the ages of 18 and 65 years. Sixteen healthy subjects completed the study. All subjects received a single dose of DC009 drug product or placebo administered via a 15-minute IV infusion.
# Cohort 1 (8 subjects) was administered 0.05 mg/kg DC009 drug product or placebo, and Cohort 0 (8 subjects) was administered 0.025 mg/kg DC009 drug product or placebo. […]
# [2] = system: embolic middle cerebral artery occlusion (MCAO) rats; test: Embolic middle cerebral artery occlusion (MCAO) model in Wistar rat (Examples 2, 7-9); assay type: in vivo; conditions: for Mean neurological severity score (NSS): 24 hours post-MCAO, scale 0-18; for blood flow compared to saline treated group: measured for 3 hours, p<0.0001 vs saline
# Description: At Day 0, anesthetize the rats to collect blood from the femoral artery to prepare the homologous clot. Create a partial arteriotomy with a microscissors and then insert a sterile PE-50 tubing ([…]) along the artery. Arterial blood collected in this length of the PE-50 tubing commonly generates ˜10 indusial clots that are suitable for MCAO. Keep the clot in the tube for 2 hours at room temperature and subsequently retain for 22 hours at 4° C.
# At Day 1, to prepare the embolus, cut the clot containing PE-50 tubing into 32 mm segment in length and connect the segment with a 3 ml saline filled syringe with 23G needle. Push the syringe to flush the clot out of the PE-50 tubing into saline filled Petri dish. Draw and flush the clot into and out of the PE-10 tubing (draw from clot's end to avoid folding and twisting of the clot), respectively, 10-15 times to wash out the majority of the entrapped red blood cells until the clot without further RBCs releasing. Connect the PE-10 tubing to the modified PE-50 catheter and shift the clot into PE-50 catheter. Then, the modified PE-50 catheter is connected to a 100 μl Hamilton microsyringe. The clot is now ready to be used.
# At Day 1, anesthetize the rats. Bluntly dissect the carotid sheath along the common carotid artery (CCA) until the ECA (ipsilateral external carotid artery), PPA (pterygopalatine artery), and ICA (internal carotid artery) bifurcation is exposed. […] Prepare laser Doppler flow probe into the tube of head. Temporarily clamp the CCA, PPA, and ICA with clip and apply a 4-0 silk suture loosely around the trunk of the ECA near bifurcation. Release the clip slowly and further advance the catheter within the ICA to enter the intracranial segment of the ICA until resistance is felt. The total length of the catheter that has been advanced is −19-22 mm from the ECA arteriotomy site. Retract the catheter 1-2 mm and slowly inject the clot with 5-10 μl of saline at rate of 10 μl/min. The percentage of regional cerebral flow (rCBF) decrease into ˜20-30% after clot injection. Wait for 30 minutes to let the clot stable at the ICA. Retract the catheter until its tip reaches the ECA/ICA bifurcation. Re-apply a clip to temporarily clamp the CCA and the ICA and then withdraw the catheter from the arteriotomy. Tighten the 4-0 silk suture around the ECA trunk to ligate the arteriotomy. Remove the clip. Wait for another 30 minutes to make sure the animal is stable and there is no blooding issue. Close the incision and terminate the anesthesia.
# Neurological deficits were assessed at 24 h after MCAO surgery. The neurological function was graded on a scale of 0-18, with 0 representing normal function and 18 representing maximum neurological deficits (see FIG. 2).
# 24 hours after the induction of MCAO, anesthetize the rat with 5% isoflurane and use normal saline to do the perfusion from heart (150 ml). Decapitate the rat and collect the brain. Rinse the collected dish and matrix with PBS before used. To tear out clot after taking photo. Slice the brain coronally into […] 2-mm slices with a brain matrix on ice (Cut the brain into 8 pieces). Incubate the brain slices in 2% 2,3,5-triphenyltetrazolium chloride (TTC) (Sigma-Aldrich) in 1×PBS for 20 min at room temperature (avoid light) and record the result by photo. Then, using ImageJ to determine the size and extent of the infarction.
# The caudal sides of all the TTC sections were scanned using a digital camera, and the images were stored as JPEG. The non-ischemic and ischemic hemisphere infarct areas were measured using image J (Image J, Bethesda, MD) software. All eight infarct area measurements were calculated with a 2 mm distance between the slices. […]
# [3] = Study 101: pharmacokinetics of single doses in healthy subjects; assay type: in vivo, human
# Source text: as §1, §2
# Cohort 1 (8 subjects) was administered 0.05 mg/kg DC009 drug product or placebo, and Cohort 0 (8 subjects) was administered 0.025 mg/kg DC009 drug product or placebo.
# Primary Endpoints: • Nature and severity of adverse events (AEs) and number of subjects with AEs • Changes from baseline in vital signs, electrocardiogram (ECG) results, laboratory abnormalities, plasmin-antiplasmin complex, euglobulin clot lysis time, platelet aggregation, and physical examination findings • Pharmacokinetic parameters: maximum plasma concentration (Cmax), time to reach the observed maximum (peak) concentration (Tmax), area under the plasma concentration-time curve from time zero to the time of the last quantifiable concentration (AUC0-t), elimination half-life (T1/2), total body clearance of the drug from plasma (CL), and volume of distribution Secondary Endpoints • Pharmacodynamic effects of DC009 drug product on blood pressure, thrombin time (TT), prothrombin time (PT), euglobulin clot lysis time, and activated partial thromboplastin time (aPTT) up to 48 hours after dosing • Relationship between DC009 plasma concentrations and the selected PD and safety parameters • RP2D (recommended phase II dose) Results
# The pharmacokinetic parameters of DC009 drug product were assessed included maximum plasma concentration (Cmax), time to reach Cmax (Tmax), area under the plasma concentration-time curve from time zero to infinity (AUC0-∞), area under the plasma concentration-time curve from time zero to the time of the last quantifiable concentration (AUC0-t), elimination half-life (T1/2), total body clearance of the drug from plasma (CL), and volume of distribution at steady state (Vss). A single sample of blood was collected at the following time points for the quantification of DC009 in plasma: at predose, 5, 10, 15 (end of infusion), 20, 25, 30, and 45 minutes; and at 1, 2, 4, 6, 12, 18, and 24 hours after infusion was initiated.
# [4] = 0.025 mg/kg dose to the 0.05 mg/kg dose
Compound,Cmax [1],"Mean neurological severity score (NSS) ([2]; DC009 0.005 mg/kg, 15-minute IV infusion 3 hours after stroke onset)","infarct size compared to saline and rtPA treated groups ([2]; DC009 0.025 mg/kg at 3 and 6 hours post MCAO surgery, 24 hours after stroke, TTC, FIG. 4)","restoring occluded blood flow ([2]; DC009 0.05 mg/kg, 15-minute IV infusion 1 hour after stroke onset, FIG. 3)","blood flow compared to saline treated group ([2]; DC009 0.05, 0.1, 0.2 and 0.4 mg/kg, 15-minute IV infusion 1 hour after stroke onset, FIG. 3)","dose-normalized geometric mean ratio for AUC0-inf [3, 4]","dose-normalized geometric mean ratio for Cmax [3, 4]","time measurable in plasma samples after the start of the infusion ([3]; 0.025 and 0.05 mg/kg, single 15-minute IV infusion)",dose proportionality of exposure ([3]; 0.025 vs 0.05 mg/kg),"Cmax ([3]; Cohort 1, 0.05 mg/kg, single 15-minute IV infusion, individual subjects)","Cmax ([3]; both sexes, human, plasma, iv, 0.025 mg/kg, Cohort 0, 0.025 mg/kg, single 15-minute IV infusion, Mean ± SEM, read-out: Cmax)","Cmax ([3]; both sexes, human, plasma, iv, 0.05 mg/kg, Cohort 1, 0.05 mg/kg, single 15-minute IV infusion, Mean ± SEM, read-out: Cmax)","Cmax ([3]; both sexes, human, plasma, iv, 0.05 mg/kg, Cohort 1, 0.05 mg/kg, single 15-minute IV infusion, individual subjects, read-out: Cmax)","half-life ([3]; both sexes, human, plasma, iv, 0.025 and 0.05 mg/kg, single 15-minute IV infusion, read-out: T1/2, range)","half-life ([3]; both sexes, human, plasma, iv, 0.025 and 0.05 mg/kg, single 15-minute IV infusion, read-out: mean of T1/2 (converted))","Tmax ([3]; both sexes, human, plasma, 0.025 and 0.05 mg/kg, single 15-minute IV infusion)","blood flow compared to saline treated group ([2]; rtPA 10 mg/kg (10% IV bolus, rest infused for 30 minutes) 1 hour after stroke onset, FIG. 3)","Mean neurological severity score (NSS) ([2]; rtPA 10 mg/kg (10% IV bolus, rest infused for 30 minutes) 3 hours after stroke onset)","infarct volumes (% hemisphere) ([2]; rtPA 10 mg/kg (10% IV bolus, rest infused for 30 minutes) 3 hours after stroke onset, 24 hours, TTC)"
"CC(NC(=O)C1CCCN1)C(=O)NC(CCCCN)C(=O)NCCCCC(NC(=O)C1Cc2cc(O)c(O)cc2C(C)(C)N1)C(=O)O (stereo not drawn) [DC009, 3S-6,7-dihydroxy-1,1-dimethyl-1,2,3,4-tetrahydro-isoquinoline-3-acyl-Lys(Pro-Ala-Lys)]",~150 ng/mL,7.13 ± 0.64,significant smaller infarct size,good efficacy,increased,1.40,1.46,only measurable within the first half-hour,approximately dose proportional,120 ng/mL,< 110 ng/mL,< 110 ng/mL,152 ng/mL,3 to 4.2 min,3.24 min,6 to 18 min,–,–,–
"rtPA: Alteplase (Activase), a recombinant tissue-type plasminogen activator (rtPA) [reference compound]",–,–,–,–,–,–,–,–,–,–,–,–,–,–,–,–,increased,6.38 ± 0.74,43.23 ± 11.03 % hemisphere
